Laboratory results reported in paper PMC10103940.

Biological target: yNup100FG (yeast) (UniProt Q02629)
Test: high-speed atomic force microscopy

UniProt Q02629, sequence (Q02629 whole entry): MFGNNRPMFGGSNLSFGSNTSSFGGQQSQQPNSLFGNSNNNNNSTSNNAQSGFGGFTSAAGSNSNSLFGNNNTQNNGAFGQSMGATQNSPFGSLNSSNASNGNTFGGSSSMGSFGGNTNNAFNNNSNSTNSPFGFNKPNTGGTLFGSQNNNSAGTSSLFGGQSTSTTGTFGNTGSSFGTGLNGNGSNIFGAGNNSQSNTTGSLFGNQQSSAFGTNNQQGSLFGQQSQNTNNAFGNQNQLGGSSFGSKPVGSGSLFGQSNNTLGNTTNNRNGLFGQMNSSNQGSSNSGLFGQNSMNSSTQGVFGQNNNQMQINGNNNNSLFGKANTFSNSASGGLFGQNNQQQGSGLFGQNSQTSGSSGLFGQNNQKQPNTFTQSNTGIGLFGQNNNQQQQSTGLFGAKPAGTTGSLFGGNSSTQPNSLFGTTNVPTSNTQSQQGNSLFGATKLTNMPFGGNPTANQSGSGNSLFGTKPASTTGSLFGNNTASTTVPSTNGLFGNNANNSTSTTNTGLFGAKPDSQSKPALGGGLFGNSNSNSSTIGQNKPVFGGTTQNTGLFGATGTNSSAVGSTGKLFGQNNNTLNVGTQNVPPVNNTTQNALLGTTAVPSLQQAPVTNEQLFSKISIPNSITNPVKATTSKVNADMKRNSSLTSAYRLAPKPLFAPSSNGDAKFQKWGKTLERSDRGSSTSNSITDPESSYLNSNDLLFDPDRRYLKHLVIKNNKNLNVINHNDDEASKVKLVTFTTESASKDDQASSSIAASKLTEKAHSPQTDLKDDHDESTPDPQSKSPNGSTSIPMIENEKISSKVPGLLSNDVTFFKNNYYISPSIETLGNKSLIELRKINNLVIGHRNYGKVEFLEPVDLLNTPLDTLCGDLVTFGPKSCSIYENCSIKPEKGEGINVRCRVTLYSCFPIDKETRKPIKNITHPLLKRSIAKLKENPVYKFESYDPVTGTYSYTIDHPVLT

“Yeast Kap95 (recombinant) (from UniProt Q06142 1-861) (natural protein)” was tested, and the height increase of the hydrogel due to Kap95 binding was 31.2 nm.
